Source: US20110165170A1 (Pfizer, published 2011)
Read-outs that look alike come from different tables or passages of the source. Values belong to the binder of their own block, whether it stands above or below them.

Tests used:
[1] = molecular target: T1, recombinant human osteopontin (R&D Systems #1433-OP/CF, carrier free) (human, UniProt P10451 17-314, biotinylated in the capture ELISA, on the SET plates and on the Biacore streptavidin chip); assay: Biacore 3000 (SPR), IgG flowed over amine-coupled human Osteopontin; avidity, 1:1 fit
T1 construct: Bought protein; also called hOPN; human OPN
T1 sequence (P10451 other isoform, or with tags, fused parts or gaps limits assumed): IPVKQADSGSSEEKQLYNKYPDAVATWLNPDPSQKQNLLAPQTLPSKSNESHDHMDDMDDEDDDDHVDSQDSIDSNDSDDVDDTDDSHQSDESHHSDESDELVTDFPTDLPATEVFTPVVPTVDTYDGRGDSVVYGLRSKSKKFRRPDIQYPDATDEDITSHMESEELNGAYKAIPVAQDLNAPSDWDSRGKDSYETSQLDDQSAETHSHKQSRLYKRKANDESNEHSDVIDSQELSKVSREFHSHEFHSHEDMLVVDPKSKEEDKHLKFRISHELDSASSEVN
Method: (§1) Binding avidity of monoclonal antibodies to Osteopontin was determined using Biacore analysis (General Electric Healthcare, Biacore 3000). To obtain nominal avidity measurements, human Osteopontin (R&D Systems, 1433-OP-050/CF) and mouse Osteopontin (R&D Systems, 441-OP-050/CF) were immobilized on a biosensor chip using standard amine coupling and various concentrations of monoclonal antibodies (MOR6990, MOR6991 and MOR6993) were flowed across the surface at 25.0° C. in 10 mM HEPES pH 7.4, 150 mM NaCl, 0.005% P20. The binding data were fit globally to a simple one-to-one binding model.

[2] = molecular target: T1, recombinant human osteopontin (R&D …); assay: cell-based or functional assay
[3] = molecular target: T2, recombinant mouse osteopontin (R&D Systems #441-OP/CF, carrier free) (mouse, UniProt P10923 17-294, biotinylated in the capture ELISA); assay: Biacore 3000 (SPR), IgG flowed over amine-coupled mouse Osteopontin; avidity, 1:1 fit
T2 construct: Bought protein; also called mOPN; mouse OPN
T2 sequence (P10923 17-294 limits assumed): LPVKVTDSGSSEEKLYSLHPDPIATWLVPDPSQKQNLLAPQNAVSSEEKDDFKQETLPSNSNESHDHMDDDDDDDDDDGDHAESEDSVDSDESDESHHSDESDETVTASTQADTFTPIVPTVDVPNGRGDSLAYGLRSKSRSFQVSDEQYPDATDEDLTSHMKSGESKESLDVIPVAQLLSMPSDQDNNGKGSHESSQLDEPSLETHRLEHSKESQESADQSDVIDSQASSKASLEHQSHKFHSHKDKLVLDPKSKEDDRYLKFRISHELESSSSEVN
Method: as §1

[4] = molecular target: T1, recombinant human osteopontin (R&D …); assay: Biacore (SPR), Fab over biotinylated human OPN on streptavidin chip
Method: (§2) Binding to immobilized antigen was analyzed using the BIAcore3000 instrument (Biacore, Sweden).
(§3) For antigen immobilization, two alternative strategies were used: in the case of human OPN, biotinylated human OPN was bound to a Streptavidin coated sensor chip (Biacore, Sweden) to a binding level of approximately 300 RU. The reference flow cell was coated with a similar amount of biotinylated HSA. In the case of murine OPN, the antigen was immobilized covalently using standard EDC-NHS amine coupling chemistry. CM5 chips (Biacore, Sweden) were coated with murine OPN in 10 mM acetate buffer, pH 3.5 to a level of 400 RU. For the reference flow cell, a respective amount of HSA was used. Regeneration was accomplished with two injections of 10 mM Gly/HCl, pH 1.5 (5 μL) and 50 mM phosphoric acid (5 μL), respectively. Kinetic measurements were done in Dulbeccos PBS, pH 7.4 (Gibco) with 0.05% Tween 20 at a flow rate of 20 μL/min using a 2n serial dilution row of Fab samples. The Fab concentrations ranged from 15.6 to 500 nM. The injection time for each concentration was 1 minute, and the dissociation time was set to a minimum of 3 minutes. A blank injection of running buffer was used for double referencing. All sensorgrams were fitted globally using BIA evaluation software 3.2 (Biacore, Sweden), to determine association and dissociation rate constants (kₒₙ and koff), which were used to calculate the affinity (KD=koff/kₒₙ).

[5] = molecular target: T2, recombinant mouse osteopontin (R&D …); assay: Biacore (SPR), Fab over amine-coupled murine OPN on CM5 chip
Method: as §2, §3

[6] = molecular target: T1, recombinant human osteopontin (R&D …); assay: solution equilibrium titration (SET), ECL, Fab
Method: Affinity determination in solution was basically performed as described in the literature (Friguet et al., J. Immunol. Methods 77:305 (1985)). In order to improve the sensitivity and accuracy of the SET method, it was transferred from classical ELISA to ECL based technology (Haenel et al., Anal. Biochem. 339:182-184 (2005)). 1 mg/mL goat-anti-human (Fab)₂ fragment specific antibodies (Dianova) were labeled with MSD Sulfo-TAG™ NHS-Ester (Meso Scale Discovery, Gaithersburg, Md., USA) according to the manufacturer's instructions. The experiments were carried out in polypropylene microtiter plates and PBS, pH 7.4, with 0.5% BSA and 0.02% Tween 20 as assay buffer. Unlabeled osteopontin was diluted in a 2n series, starting with a concentration at least 10 times higher than the expected KD. Wells without antigen were used to determine Bₘₐₓ values; wells with assay buffer were used to determine background. After addition of e.g. 25 pM Fab (final concentration in 60 μL final volume), the mixture was incubated over night at room temperature. The applied Fab concentration was similar to or below the expected KD.
Streptavidin coated MSD plates were blocked over night with 3% BSA in PBS (50 μL/well), subsequently the blocking solution was discarded and the plates were coated with […] biotinylated osteopontin in assay buffer (30 μL/well) for 1 hour. After washing the coated MSD plates with assay buffer, the equilibrated samples were transferred to those plates (30 μL/well) and incubated for 20 minutes. After washing, 30 μL/well of the MSD Sulfo-tag labeled detection antibody (goat anti-human (Fab)₂) in a final dilution of 1:1000 was added to the MSD plate and incubated for 30 minutes on an Eppendorf shaker (700 rpm).

[7] = molecular target: T1, recombinant human osteopontin (R&D …); assay: cell-based or functional assay; remark: listed apart in the source
[8] = molecular target: T1, recombinant human osteopontin (R&D …); assay: protein ELISA, Fab on human OPN protein
[9] = molecular target: T3, SPP1 peptide comprising functional domains of mouse OPN (27 aa) (mouse); assay: peptide ELISA, Fab on mouse SPP1 peptide
T3 construct: Target of the 'Peptide ELISA, mOPN' columns; also called mOPN peptide; SSP1 peptide

[10] = molecular target: T1, recombinant human osteopontin (R&D …); assay: Biacore (SPR), Fab over immobilized human OPN
[11] = molecular target: T4, SPP1 peptide comprising functional domains of human OPN (27 aa) (human); assay: peptide ELISA, Fab on human SPP1 peptide
T4 construct: Target of the 'Peptide ELISA, hOPN' columns; also called hOPN peptide; SSP1 peptide

[12] = molecular target: T2, recombinant mouse osteopontin (R&D …); assay: protein ELISA, Fab on mouse OPN protein
[13] = molecular target: T2, recombinant mouse osteopontin (R&D …); assay: Biacore (SPR), Fab over immobilized mouse OPN
Method: as §3

B1: MOR-6990 (full length human IgG2) (antibody, V domains shown)
VH: QVQLVESGGGLVQPGGSLRLSCAASGFTFSNYVMHWVRQAPGKGLEWVSSIFGSGSDTYYADSVKGRFTISRDNSKNTLYLQMNSLRAEDTAVYYCARSASSGFGFAGYGIDSWGQGTLVTVSS
VL: DIELTQPPSVSVAPGQTARISCSGDSLRYYYAHWYQQKPGQAPVLVIYDDNKRPSGIPERFSGSNSGNTATLTISGTQAEDEADYYCQSWDLFHSSVFGGGTKLTVLG
notes: Human IgG2, lambda light chain; made in HKB11 cells
Kd [1]: 20.9 nM
koff [1]: 0.00203 s⁻¹
kon [1]: 96900 M⁻¹ s⁻¹
Adhesion Assay Mn2+-dependent hOPN, IC50 [2]: 0.4 nM
Kd [3]: 4.7 nM
koff [3]: 0.000864 s⁻¹
kon [3]: 183000 M⁻¹ s⁻¹

B2: HuCAL GOLD Fab 6990 (MOR-6990 Fab) (Fab, V domains shown)
VH: QVQLVESGGGLVQPGGSLRLSCAASGFTFSNYVMHWVRQAPGKGLEWVSSIFGSGSDTYYADSVKGRFTISRDNSKNTLYLQMNSLRAEDTAVYYCARSASSGFGFAGYGIDSWGQGTLVTVSS
VL: DIELTQPPSVSVAPGQTARISCSGDSLRYYYAHWYQQKPGQAPVLVIYDDNKRPSGIPERFSGSNSGNTATLTISGTQAEDEADYYCQSWDLFHSSVFGGGTKLTVL
notes: Fab format made in E. coli
Kd [4]: 140 nM
Kd [5]: 2270 nM
Kd [6]: 35 nM
Adhesion Assay Mn2+-dependent hOPN, IC50 [7]: 157 nM

B4: HuCAL GOLD Fab 6991 (MOR-6991 Fab) (Fab, V domains shown)
VH: QVQLVESGGGLVQPGGSLRLSCAASGFTFNNYAVSWVRQAPGKGLEWVSGISYGGSNTYYADSVKGRFTISRDNSKNTLYLQMNSLRAEDTAVYYCARTLGGDFDHWGQGTLVTVSS
VL: DIVLTQPPSVSGAPGQRVTISCSGSSSNIGSNYVNWYQQLPGTAPKLLIYGNSKRPSGVPDRFSGSKSGTSASLAITGLQSEDEADYYCQSFTQMLLVFGGGTKLTVL
notes: Fab format made in E. coli
Kd [4]: 300 nM
Kd [5]: 1390 nM
Kd [6]: 3 nM
Adhesion Assay Mn2+-dependent hOPN, IC50 [7]: 264 nM

B7: MOR-6993 (full length human IgG2) (antibody, V domains shown)
VH: QVQLVESGGGLVQPGGSLRLSCAASGFTFTTSSMHWVRQAPGKGLEWVSRISSHGSNTYYADSVKGRFTISRDNSKNTLYLQMNSLRAEDTAVYYCARDMYRGVYGFALWGQGTLVTVSS
VL: DIELTQPPSVSVAPGQTARISCSGDAIRNYYVHWYQQKPGQAPVLVIYEDSDRPSGIPERFSGSNSGNTATLTISGTQAEDEADYYCQSYDKSNVVFGGGTKLTVLG
notes: as for B1
Kd [1]: 0.752 nM
koff [1]: 0.00462 s⁻¹
kon [1]: 6.14e+06 M⁻¹ s⁻¹
Adhesion Assay Mn2+-dependent hOPN, IC50 [2]: 0.4 nM
Kd [3]: 0.747 nM
koff [3]: 0.00496 s⁻¹
kon [3]: 6.64e+06 M⁻¹ s⁻¹

More lines, now with the values ahead:

EC50 [8]: 0.6 nM
EC50 [9]: 0.7 nM
Kd [10]: 80 nM
EC50 [11]: 0.7 nM
EC50 [12]: 0.6 nM
Kd [13]: 41 nM
B3: MOR-10475 Fab (Fab, V domains shown)
VH: QVQLVESGGGLVQPGGSLRLSCAASGFTFSNYVMHWVRQAPGKGLEWVSSIFGSGSDTYYADSVKGRFTISRDNSKNTLYLQMNSLRAEDTAVYYCARSASSGFGFAGYGIDSWGQGTLVTVSS
VL: DIELTQPPSVSVAPGQTARISCSGDSLRYYYAHWYQQKPGQAPVLVIYDDNKRPSGIPERFSGSNSGNTATLTISGTQAEDEADYYCQAWDLINSHVFGGGTKLTVL
notes: Only variable domains are tied to the Fab

Kd [1]: 19 nM
koff [1]: 0.00933 s⁻¹
kon [1]: 491000 M⁻¹ s⁻¹
Adhesion Assay Mn2+-dependent hOPN, IC50 [2]: 0.6 nM
B5: MOR-6991 (full length human IgG2) (antibody, V domains shown)
VH: QVQLVESGGGLVQPGGSLRLSCAASGFTFNNYAVSWVRQAPGKGLEWVSGISYGGSNTYYADSVKGRFTISRDNSKNTLYLQMNSLRAEDTAVYYCARTLGGDFDHWGQGTLVTVSS
VL: DIVLTQPPSVSGAPGQRVTISCSGSSSNIGSNYVNWYQQLPGTAPKLLIYGNSKRPSGVPDRFSGSKSGTSASLAITGLQSEDEADYYCQSFTQMLLVFGGGTKLTVLG
notes: as for B1

Kd [4]: 70 nM
Kd [5]: 3980 nM
Kd [6]: 0.2 nM
Adhesion Assay Mn2+-dependent hOPN, IC50 [7]: 29.8 nM
B6: HuCAL GOLD Fab 6993 (MOR-6993 Fab) (Fab, V domains shown)
VH: QVQLVESGGGLVQPGGSLRLSCAASGFTFTTSSMHWVRQAPGKGLEWVSRISSHGSNTYYADSVKGRFTISRDNSKNTLYLQMNSLRAEDTAVYYCARDMYRGVYGFALWGQGTLVTVSS
VL: DIELTQPPSVSVAPGQTARISCSGDAIRNYYVHWYQQKPGQAPVLVIYEDSDRPSGIPERFSGSNSGNTATLTISGTQAEDEADYYCQSYDKSNVVFGGGTKLTVL
notes: Fab format made in E. coli
